Measured values: patent CN116829596A
pKd: −log10 of the molar value.

Columns and labels:
[1] = target: 人类血浆激肽释放酶 (human plasma kallikrein) (human) (UniProt P03952); experiment: SPR, 37 C, pH 7.4 or pH 6.0
凝血酶A (thrombin A) = experiment: cell-based or functional assay
[2] = target: 人类血浆激肽释放酶 (human plasma kallikrein) (human) (UniProt P03952); experiment: cell-based or functional assay
[3] = target: 胰蛋白酶、人类胰酶 (trypsin, human pancreas) (human) (UniProt P07477); experiment: cell-based or functional assay
丝氨酸穿膜蛋白酶 = experiment: cell-based or functional assay
[4] = target: 人类血浆激肽释放酶 (human plasma kallikrein) (human) (UniProt P03952); experiment: SPR, 37 C, pH 6 against pH 7.4
[5] = target: 人类血浆激肽释放酶 (human plasma kallikrein) (human) (UniProt P03952); experiment: SPR, 37 C, pH 6.0
[6] = target: 人类血浆激肽释放酶 (human plasma kallikrein) (human) (UniProt P03952); experiment: SPR, 37 C, pH 7.4

UniProt P03952, sequence (P03952 20-390 S143N limits assumed, chain 1 of 2): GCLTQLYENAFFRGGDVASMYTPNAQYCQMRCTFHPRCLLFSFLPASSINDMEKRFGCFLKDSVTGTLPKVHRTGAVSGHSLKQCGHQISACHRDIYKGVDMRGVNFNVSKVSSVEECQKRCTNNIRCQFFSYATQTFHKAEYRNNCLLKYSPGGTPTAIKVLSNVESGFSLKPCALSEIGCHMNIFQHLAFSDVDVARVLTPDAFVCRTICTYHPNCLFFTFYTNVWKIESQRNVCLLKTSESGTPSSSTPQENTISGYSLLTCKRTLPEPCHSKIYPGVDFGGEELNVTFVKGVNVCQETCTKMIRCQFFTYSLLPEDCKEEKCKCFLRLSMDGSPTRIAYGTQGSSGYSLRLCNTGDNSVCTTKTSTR
UniProt P03952, sequence (P03952 391-638 limits assumed, chain 2 of 2): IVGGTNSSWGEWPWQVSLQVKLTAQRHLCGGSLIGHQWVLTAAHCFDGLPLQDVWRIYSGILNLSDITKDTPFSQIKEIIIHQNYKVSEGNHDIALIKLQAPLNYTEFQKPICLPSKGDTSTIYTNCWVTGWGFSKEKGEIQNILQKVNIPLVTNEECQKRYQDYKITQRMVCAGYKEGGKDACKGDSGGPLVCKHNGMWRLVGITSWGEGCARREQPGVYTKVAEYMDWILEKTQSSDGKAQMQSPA

fold affinity for plasma kallikrein over prekallikrein [1]: > 1000 倍
丝氨酸蛋白酶抑制分析，IC50 (凝血酶A (thrombin A)): > 1000 nM
IC90，HMWK功能分析 [2]: 300 nM
胰蛋白酶抑制分析，IC50 [3]: 243 to 376 nM
丝氨酸蛋白酶抑制分析，IC50 (丝氨酸穿膜蛋白酶): > 1000 nM
fold change of KD between pH 6 and pH 7.4 [4]: > 10 倍
pKd [5]: 6.63
pKd [6]: 7.74
Substance: DX-2930 (antibody)
